US20230399384A1 (University of Texas, published 2023)

Columns and labels:
[1] = target: T1, sCoV2-RBD (Fc-tagged RBD of SARS-CoV-2 S protein) (SARS-CoV-2; human, UniProt P0DTC2 319-541); experiment: ELISA titration on coated sCoV2-RBD
[2] = target: SARS-CoV-2 RBD protein (Sino Biological, Cat: 40592-V08B) (SARS-CoV-2, UniProt P0DTC2 319-541); experiment: BLI (Octet), mAb on Protein A sensor
[3] = target: T1, sCoV2-RBD (Fc-tagged RBD of SARS-CoV-2 …); experiment: BLI (Octet) blocking of ACE2 binding to captured sCoV2-RBD
[4] = target: sCoV-RBD (Fc-tagged RBD of SARS-CoV S protein) (SARS-CoV; human, UniProt P59594 306-527); experiment: phage ELISA, scFv on phage
S protein of SARS-CoV = S protein of SARS-CoV (SARS-CoV, UniProt P59594 14-1195); experiment: ELISA, purified IgG1 on coated S protein

B1: CoV2-13 (antibody, V domains shown)
VH: QVQLQQSGAEVKKPGSSVKVSCKASGGNFRSHTFSWVRQAPGQGLEWMGEIMPRFGATNYAQKFQGRVTITADESTGTTYMELSSLKSHDTAVYFCAADLGSGRKFDSWAQGTLVSVSS
VL: NIQMTQSPSSLSASVGDRVTITCRASQGIGSDLGWYQQRPGKAPKRLIYAASSLQSGVPSRFSGSGSGTEFTLTISSLQPEDFATYYCLQHNSYPLTFGQGTKVEIK
In the case of B1, the EC50 [1] is reported as 0.17 nM, the Kd [2] is reported as 50.7 nM and the koff [2] is reported as 0.00103 s⁻¹. The kon [2] was 20300 M⁻¹ s⁻¹ and the IC50 [3] was 2.29 µg/mL.

B2: 07 (antibody, V domains shown)
VH: EVQLVESGGGVFQPGRSLRLSCAASGFTFSDFGMHWVRQAPGKGLEWVAVTSHDGSSKFYADSVKGRFTVSRDNSKNKLYLEMNSLRVEDSAVYYCAKDSDNGYDADFFDYWGQGTLVTVSS
VL: not shown
notes: also called CoV2-07; phage clone 07
B2: no binding [4].

B3: CoV2-03 (antibody, V domains shown)
VH: QVQLVESGAEMKKPGASVKVSCKTSGYTFTNSYIHWVRQAPGQGLEWMGWINPISGGTNYAQKFQGRVTMTRDTSINTAYMELSRLRSDDTAVYYCARDRGDYDYGWGTSPFYFDYWGQGTLVTVSS
VL: not shown
With B3 the binding result [4] was “no binding”, the EC50 [1] was 3.35 nM and the binding result (S protein of SARS-CoV) was “no binding (tested: one concentration, not printed)”. The IC50 [3] was 14.8 µg/mL.

B4: CoV2-02 (antibody, V domains shown)
VH: QVQMVQSGAEMKKPGASVKVSCKTSGYTFTNSYIHWVRQAPGQGLEWMGWINPISGGTNYAQKFQGRVTMTRDTSINTAYMELSRLRSDDTAVYYCARDRGDYDYGWGTSPFYFDYWGQGTLVSVSS
VL: AIQMTQSPSSLSASVGDRVTITCRASQPISKYLNWYQQKPGKAPKLLIYAASSLQSGVPSSFSGSGFGTDFTLTISNLQPEDFATYYCQQSNGIPLTFGGGTKVDIK
B4 was tested, and the binding result [4] was “no binding”, the EC50 [1] was 0.47 nM and the Kd [2] was 7.85 nM. For the same binder, the koff [2] was 0.000499 s⁻¹, the kon [2] was 63500 M⁻¹ s⁻¹ and the binding result (S protein of SARS-CoV) was “no binding (tested: one concentration, not printed)”. It also gave an IC50 [3] of 17.7 µg/mL.

B5: CoV2-22 (antibody, V domains shown)
VH: QVQLVQSGAEMKKPGASVKVSCKTSGYTFTNSYIHWVRQAPGQGLEWMGWINPISGGTNYAQKFQGRVTMTRDTSINTAYMELSRLRSDDTAVYYCARDRGDYDYGWGTSPFYFDYWGQGTLVTVSS
VL: DVQMTQSPSSLSASVGDRVTITCRASQSISSYLNWYQQKPGKAPKLLIYGASSLESGVPSRFSGGGSGTDFTLTISSLQPEDFASYYCQQSYSIPFTFGPGTTVDIK
B5 was tested, and the binding result [4] was “no binding”, the EC50 [1] was 3.41 nM and the binding result (S protein of SARS-CoV) was “no binding (tested: one concentration, not printed)”.

B6: CoV2-28 (antibody, V domains shown)
VH: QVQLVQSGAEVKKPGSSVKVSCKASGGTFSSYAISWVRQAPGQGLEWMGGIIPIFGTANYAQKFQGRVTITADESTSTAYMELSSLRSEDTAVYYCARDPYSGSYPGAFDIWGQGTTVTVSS
VL: QAVVTQPASVSGSPGQSITISCTGTSSDVGGYNYVSWYQQHPGKAPKLMIYDVSNRPSGVSNRFSGSKSGNTASLTISGLQAEDEADYYCNSYTRSSTSVFGTGTQLTVL
For B6, the binding result [4] was “no binding”, the EC50 [1] was 130 nM and the binding result (S protein of SARS-CoV) was “no binding (tested: one concentration, not printed)”.

B7: CoV2-23 (antibody, V domains shown)
VH: QVQLVESGGGLVQPGRSLRLSCAASGFTFDDYAMHWVRQAPGKGLEWVSGISWNSGSIGYADSVKGRFTISRDNAKNSLYLQMNSLRAEDTALYYCAKDMDIWFGGGLDYWGQGTLVSVSS
VL: DVQMTQSPSSVSASVGDRVTITCRASEGIGNWLAWYQQKPGKAPKLLIYEASSLQSGVPSRFSGSGSGADFTLTISSLQPEDFGTYYCLQANSFPITFGRGTKLEIK
B7 showed an EC50 [1] of 1.04 nM.

B8: CoV2-24 (antibody, V domains shown)
VH: QVQLHQWGAGLLKPSETLSRTCAVYGGSFSGYYWTWIRQAPGKGLEWIGEINHGGSTRYNPSLESRVSISVDTSKKQFSLELRSVTAADTAIYYCARGLVGGGAFDIWGQGTMVTVSS
VL: NFMLTQPSSVSVAPGQTARITCGGDNIGSTGVHWYQQKPGQAPVLVVYDDTDRPSGIPERFSGSKSGNTAALTISGVEAGDEADFYCQVWDSSGHSYVFGTGTKVTVL
For B8, the binding result [4] was “no binding”, the EC50 [1] was 29.7 nM and the binding result (S protein of SARS-CoV) was “no binding (tested: one concentration, not printed)”.
